Test results from patent publication US20100081170A1.

Key:
[1] = biological target: native human CD20 on isolated normal human B cells (human) (UniProt P11836); assay: Scatchard analysis, unlabeled against 125I-Fab on human B cells, Donor 4
[2] = biological target: native human CD20 on isolated normal human B cells (human) (UniProt P11836); assay: Scatchard analysis, unlabeled against 125I-Fab on human B cells, Donor 5
[3] = biological target: His-tagged human CD20 expressed in E. coli (human) (UniProt P11836); assay: SPR (BIAcore-3000), rituximab Fab immobilised on CM5, CD20 in 0.1% DDM as analyte, 1:1 model
[4] = biological target: C2S mutant of human CD20 (Cys111Ser, Cys220Ser), His-tagged (human) (UniProt P11836); assay: SPR (BIAcore-3000), rituximab Fab immobilised on CM5, C2S-CD20 in 0.1% DDM as analyte, 1:1 model
[5] = biological target: C2S mutant of human CD20 (Cys111Ser, Cys220Ser), His-tagged (human) (UniProt P11836); assay: SPR (BIAcore-3000), rituximab Fab immobilised on CM5, affinity purified C2S-CD20 as analyte, 1:1 model
[6] = biological target: native human CD20 on isolated normal human B cells (human) (UniProt P11836); assay: Scatchard analysis, unlabeled against 125I-IgG on human B cells, Donor 1
[7] = biological target: native human CD20 on isolated normal human B cells (human) (UniProt P11836); assay: Scatchard analysis, unlabeled against 125I-IgG on human B cells, Donor 2
[8] = biological target: native human CD20 on isolated normal human B cells (human) (UniProt P11836); assay: Scatchard analysis, unlabeled against 125I-IgG on human B cells, Donor 3
[9] = biological target: His-tagged human CD20 expressed in E. coli (human) (UniProt P11836); assay: SPR (BIAcore-3000), rituximab IgG immobilised on CM5, CD20 in 0.1% DDM as analyte, 1:1 model
[10] = biological target: His-tagged human CD20 expressed in E. coli (human) (UniProt P11836); assay: ELISA, CD20 coated on the plate, rituximab titrated, detection with HRP goat anti-human F(ab')2, absorbance 450 nm
[11] = biological target: human CD20 expressed with the LE leader (LE.CD20), leader and His-tag removed with thrombin (human) (UniProt P11836); assay: as above
[12] = biological target: human CD20 expressed with the sLE leader (sLE.CD20), leader removed with thrombin (human) (UniProt P11836); assay: as above
Reduced, Reoxidized = assay: ELISA, reduced and re-oxidized CD20 coated on the plate, rituximab titrated, detection with HRP goat anti-human F(ab')2, absorbance 450 nm
Reduced, Reoxidized, sequence (CD20 polypeptide, as listed by the source): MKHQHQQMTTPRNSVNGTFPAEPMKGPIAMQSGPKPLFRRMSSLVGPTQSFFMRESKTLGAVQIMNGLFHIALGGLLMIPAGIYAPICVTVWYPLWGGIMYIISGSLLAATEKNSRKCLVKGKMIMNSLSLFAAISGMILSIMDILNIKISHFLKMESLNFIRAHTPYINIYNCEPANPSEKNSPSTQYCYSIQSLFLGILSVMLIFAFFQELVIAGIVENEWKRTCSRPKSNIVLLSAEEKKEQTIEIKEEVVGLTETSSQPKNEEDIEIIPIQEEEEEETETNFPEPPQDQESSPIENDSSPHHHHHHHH

Row | Substance | Kd [1] [nM] | Kd [2] [nM] | Ka [3] [M⁻¹] | Kd [3] [nM] | Ka [4] [M⁻¹] | Kd [4] [nM] | Ka [5] [M⁻¹] | Kd [5] [nM] | Kd [6] [nM] | Kd [7] [nM] | Kd [8] [nM] | Ka [9] [M⁻¹] | EC50 (read off the curve) [10] [nM] | EC50 (read off the curve) [11] [nM] | EC50 (read off the curve) [12] [nM] | EC50 (read off the curve) (Reduced, Reoxidized) [nM]
1 | rituximab Fab | 52 | 63 | 3.5e+06 | 280 | 4.4e+06 | 230 | 5.4e+06 | 190 |  |  |  |  |  |  |  | 
2 | rituximab full length antibody |  |  |  |  |  |  |  |  | 0.32 | 0.72 | 1.27 | 6.6e+06 | 0.5 | 0.5 | 0.4 | 50
